In article PMC3168509, “Insights into the Role of Yeast eIF2A in IRES-Mediated Translation” (PLoS ONE, 2011):

Biological target: T1, GST-eEF1A (full-length eEF1A/Tef1p fused to GST) (S. cerevisiae, UniProt P02994 1-458)
T1 construct: yeast eEF1A, TEF1 amplified by PCR from genomic DNA; also called GST-TEF1; full-length eEF1A fusion protein; not shown: GST, N-terminal, kept
T1 sequence (looked up): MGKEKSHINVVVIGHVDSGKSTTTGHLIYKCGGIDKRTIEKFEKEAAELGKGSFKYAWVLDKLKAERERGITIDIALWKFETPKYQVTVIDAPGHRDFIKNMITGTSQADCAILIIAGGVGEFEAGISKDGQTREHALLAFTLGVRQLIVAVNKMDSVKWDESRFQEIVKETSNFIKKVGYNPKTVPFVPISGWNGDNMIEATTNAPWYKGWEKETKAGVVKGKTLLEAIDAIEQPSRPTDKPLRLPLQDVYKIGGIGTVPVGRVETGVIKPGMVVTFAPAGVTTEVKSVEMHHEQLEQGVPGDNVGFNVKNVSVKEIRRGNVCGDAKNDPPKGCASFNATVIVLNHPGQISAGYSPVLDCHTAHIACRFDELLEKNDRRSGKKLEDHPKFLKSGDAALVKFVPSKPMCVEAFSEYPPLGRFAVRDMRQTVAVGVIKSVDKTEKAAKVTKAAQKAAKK
Test: pull-down; full-length GST-eEF1A on glutathione-Sepharose with lysates of ΔeIF2A yeast carrying YCplac111-YP, grown 1 h without or with 6% ethanol; Western blot for HA, bands quantified with Image J against 8% input
Details: one partner purified

fold increase in interaction (6% ethanol against untreated cells): 2 fold
B1: HA-eIF2A (N-terminally HA-tagged eukaryotic initiation factor 2A expressed from YCplac111-YP) (natural protein, S. cerevisiae, UniProt P53235 1-642, looked up)
chain: MSSQFFLKTSQDIELFQSYPTFEQSNTNSKDFPVISSVLSPCGRFLALSTKENVKVFTGPCLDNVLLTMKLSDVYDLHFSPAGNYLSTWERASIQDPNHKNVKVWYLNKPFKKDCVSEDIVPAYEYQAKSQSGWFLQFSKLDNYGLRLFKHDLKIVKLSSANADNFDFQSPFAVLSDDETSQHFTTYLISPAEHPTICTFTPEKGGKPAQLIIWALSEGKITKKIASKTFFKADSCQLKWNPLGNAILCLAITDFDSSNKSYYGENTLYLLSFQGVNGTLGGNSVRVSLTTGPVHDFTWSPTSRQFGVIAGYMPATISFFDLRGNVVHSLPQQAKNTMLFSPSGHYILIAGFGNLQGSVEILDRLDKFKCVSKFDATNTSVCKWSPGGEFIMTATTSPRLRVDNGVKIWHVSGSLVFVKEFKELLKVDWRSPCNYKTLENKDEAFFENHIINNWEPLPDSTTSSLDPKISNKSELQIHSSVQEYISQHPSREASSNGNGSKAKAGGAYKPPHARRTGGGRIVPGVPPGAAKKTIPGLVPGMSANKDANTKNRRRRANKKSSETSPDSTPAPSAPASTNAPTNNKETSPEEKKIRSLLKKLRAIETLKERQAVGDKLEDTQVLKIQTEEKVLKDLEKLGWKDE
notes: yeast eukaryotic initiation factor 2A, encoded by YGR054w; the HA-tagged eIF2A coding region behind its natural promoter; the kind of modification is not known; also called HA-tagged eIF2A; YGR054w; source: BY4684 ΔeIF2A yeast transformed with YCplac111-YP (native promoter), in lysate; not shown: HA, N-terminal, kept
